Measurements as given in US20240216484A1.

Biological target: SARS-CoV-2 spike protein, extracellular domain (1-1213), recombinant from HEK293 cells (SARS-CoV-2) (UniProt P0DTC2)

HZI 2-09 (Anlec in TBS; lectin batch isolated from bromelain)
Kd: 8.25 µM | koff: 0.003 s⁻¹ | kon: 331 M⁻¹ s⁻¹
